Where “and” joins values, the source holds several entries; their conditions need not be identical. Equal values may be shown once.

The labels stand for the following.
B2: lamin 300 fragment, wild type (human lamin A/C residues 1–300), His tag cleaved (domain or fragment, UniProt P02545 1-300, looked up)
chain: METPSQRRATRSGAQASSTPLSPTRITRLQEKEDLQELNDRLAVYIDRVRSLETENAGLRLRITESEEVVSREVSGIKAAYEAELGDARKTLDSVAKERARLQLELSKVREEFKELKARNTKKEGDLIAAQARLKDLEALLNSKEAALSTALSEKRTLEGELHDLRGQVAKLEAALGEAKKQLQDEMLRRVDAENRLQTMKEELDFQKNIYSEELRETKRRHETRLVEIDNGKQREFESRLADALQELRAQHEDQVEQYKKELEKTYSAKLDNARQSAERNSNLVGAAHEELQQSRIRID
notes: lamin A/C, human, residues 1-300; Mostly a dimer by SEC-MALS; also called WT; lamin 1–300 fragment; source: E. coli BL21 (DE3), purified (Ni-NTA, TEV, HiTrap Q, SEC); not shown: His tag, N-terminal, cleaved
B3: lamin 300 fragment A146C mutant (human lamin A/C residues 1–300), His tag cleaved (domain or fragment, UniProt P02545 1-300, looked up)
chain: METPSQRRATRSGAQASSTPLSPTRITRLQEKEDLQELNDRLAVYIDRVRSLETENAGLRLRITESEEVVSREVSGIKAAYEAELGDARKTLDSVAKERARLQLELSKVREEFKELKARNTKKEGDLIAAQARLKDLEALLNSKECALSTALSEKRTLEGELHDLRGQVAKLEAALGEAKKQLQDEMLRRVDAENRLQTMKEELDFQKNIYSEELRETKRRHETRLVEIDNGKQREFESRLADALQELRAQHEDQVEQYKKELEKTYSAKLDNARQSAERNSNLVGAAHEELQQSRIRID
modifications: disulfide bond through Cys146 in the non-reduced protein
notes: lamin A/C, human, residues 1-300; Non-reduced: partly a disulfide-linked tetramer; with TCEP: dimer (A146C^R); also called lamin 300 A146C; A146C variant; source: E. coli BL21 (DE3), purified (Ni-NTA, TEV, HiTrap Q, SEC); not shown: His tag, N-terminal, cleaved

Data set [1] deals with the molecule itself. Description: crystal structure; SeMet-labelled lamin 1-300, His tag cleaved, 7 mg/mL; 0.1 M Tris-HCl pH 8.5, 0.9 M LiCl, 7% PEG 8000, 14 °C; SAD, 3.2 Å.
Data set [2] deals with the molecule itself. The data set is described as follows: SEC-MALS; 2.5 mg/ml, Superdex 200 Increase 5/150 GL, non-reducing buffer Tris-HCl pH 8.0, 150 mM NaCl.
Data set [3] has as its target B2. Description: cross-linking; sulfo-SMPB (0-250 μM) added to 20 μM lamin 300 and 286-400 R388C, 1 h, 20 mM HEPES pH 7.5, 50 mM NaCl, 1 mM EDTA; SDS-PAGE bands digested with chymotrypsin, MS/MS. The following applies: both partners purified.
Data set [4] concerns the molecule itself. Described as above.
Data set [5] has as its target T1, His-tagged lamin 300 fragment, wild type (human lamin A/C residues 1–300) (human, UniProt P02545 1-300).
T1 construct: lamin A/C, human, residues 1-300; The plasmid also encodes a TEV site between the tag and the lamin residues (pProEx-HTa); also called His-lamin; His-tagged wild-type lamin 300 fragment; source: E. coli BL21 (DE3), purified (Ni-NTA, HiTrap Q, SEC; no TEV treatment); not shown: His tag, N-terminal, kept
T1 sequence (looked up): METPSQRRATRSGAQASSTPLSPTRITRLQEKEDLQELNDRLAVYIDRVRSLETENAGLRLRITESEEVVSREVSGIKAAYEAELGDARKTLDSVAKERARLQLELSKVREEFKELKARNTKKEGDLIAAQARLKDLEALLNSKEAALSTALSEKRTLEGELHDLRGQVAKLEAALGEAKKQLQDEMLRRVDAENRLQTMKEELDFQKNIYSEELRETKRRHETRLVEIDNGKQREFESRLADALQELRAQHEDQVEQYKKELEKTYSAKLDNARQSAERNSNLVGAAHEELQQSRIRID
The data set is described as follows: pull-down; His-tagged lamin 300 (wild type, Y45C, L59R) on Ni-NTA resin; lamin 250-400 as prey; 20 mM Tris-HCl pH 8.0 with 50 or 150 mM NaCl; SDS-PAGE. The settings on record: both partners purified.

Data set [6] concerns the target B3. The data set is described as follows: pull-down; lamin 300 A146C coupled to CNBr-activated Sepharose; fragments at 66 μM; 20 mM Tris-HCl pH 8.0, 150 mM NaCl, non-reducing; Tris-blocked resin as control; SDS-PAGE. The following applies: both partners purified.
The target in data set [7] is T1, His-tagged lamin 300 fragment, wild …. The data set is described as follows: ITC; His-lamin 300 (20 μM) in the cell, His-250-400 (160 μM) in the syringe; PBS, 25 °C, 19 injections of 2 μL. The settings on record: both partners purified.
For data set [8], the target named is T2, His-tagged lamin 300 fragment L59R mutant (human, UniProt P02545 1-300, L59R).
T2 construct: lamin A/C, human, residues 1-300, with the dilated cardiomyopathy mutation L59R; source: E. coli BL21 (DE3), purified (Ni-NTA, HiTrap Q, SEC; no TEV treatment)
T2 sequence (looked up): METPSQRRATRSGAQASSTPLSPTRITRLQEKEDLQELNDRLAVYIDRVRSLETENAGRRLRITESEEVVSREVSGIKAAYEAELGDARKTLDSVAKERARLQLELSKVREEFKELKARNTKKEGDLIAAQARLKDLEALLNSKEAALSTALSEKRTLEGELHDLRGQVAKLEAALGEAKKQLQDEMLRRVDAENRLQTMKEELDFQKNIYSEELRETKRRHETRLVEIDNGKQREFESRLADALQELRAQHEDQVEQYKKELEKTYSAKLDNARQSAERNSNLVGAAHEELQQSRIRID
The description is as above. The following applies: both partners purified.

The target in data set [9] is B2. Description: pull-down; His-F3 on Ni-NTA resin as bait; tag-cleaved lamin 300 proteins as prey; 20 mM Tris-HCl pH 8.0 with 150 or 50 mM NaCl, room temperature 30 min, wash with 20 mM imidazole; 2 mM TCEP for reduced A146C; SDS-PAGE. The settings on record: both partners purified.
Data set [10] has as its target B3. The description is as above. The following applies: both partners purified.

B1: selenomethionine-labelled lamin A/C fragment (residues 1–300), His tag cleaved (domain or fragment, human, UniProt P02545 1-300, looked up)
chain: METPSQRRATRSGAQASSTPLSPTRITRLQEKEDLQELNDRLAVYIDRVRSLETENAGLRLRITESEEVVSREVSGIKAAYEAELGDARKTLDSVAKERARLQLELSKVREEFKELKARNTKKEGDLIAAQARLKDLEALLNSKEAALSTALSEKRTLEGELHDLRGQVAKLEAALGEAKKQLQDEMLRRVDAENRLQTMKEELDFQKNIYSEELRETKRRHETRLVEIDNGKQREFESRLADALQELRAQHEDQVEQYKKELEKTYSAKLDNARQSAERNSNLVGAAHEELQQSRIRID
modifications: selenomethionine-labelled
notes: lamin A/C, human, residues 1-300 (head, coil 1a, L1, coil 1b, L12, first half of coil 2); Four protomers (chains A-D) in the asymmetric unit: two parallel coiled-coil dimers (A:B, C:D) packed anti-parallel; also called lamin 300 fragment; N-terminal half fragment of human lamin A/C; source: E. coli B834 (DE3), M9 medium with L-(+)-selenomethionine, purified (Ni-NTA, TEV, HiTrap Q, SEC); not …
Regarding B1, the binding result in data set [1] is on record as “binds”.

As for B2, in [2], the “stoichiometry N” value is 2.

As to B3, the “stoichiometry N” value in data set [2] was 4 and 2.

B4: lamin 286–400 R388C mutant (domain or fragment, human, UniProt P02545 286-400, looked up)
chain: GAAHEELQQSRIRIDSLSAQLSQLQKQLAAKEAKLRDLEDSLARERDTSRRLLAEKEREMAEMRARMQQQLDEYQELLDIKLALDMEIHAYRKLLEGEEERLCLSPSPTSQRSRG
notes: lamin A/C, human, residues 286-400; runs at 14 kDa on SDS-PAGE; Reduced with 2 mM DTT and desalted before cross-linking; also called coil 2 (286–400) R388C; coil 2 R388C; source: E. coli BL21 (DE3), purified
In the case of B4, the binding result in data set [3] and in data set [4] was “binds” throughout.

B5: lamin 250–400 fragment (F3), without His tag (domain or fragment, human, UniProt P02545 250-400, looked up)
chain: AQHEDQVEQYKKELEKTYSAKLDNARQSAERNSNLVGAAHEELQQSRIRIDSLSAQLSQLQKQLAAKEAKLRDLEDSLARERDTSRRLLAEKEREMAEMRARMQQQLDEYQELLDIKLALDMEIHAYRKLLEGEEERLRLSPSPTSQRSRG
notes: lamin A/C, human, residues 250-400 (coil 2, residues 240-385, without its N-terminal ten residues); not called His-tagged there, so by the common procedure the tag would be cleaved; also called coil 2 fragment; C-terminal part of coil 2; source: E. coli BL21 (DE3), purified (Ni-NTA, TEV, HiTrap Q, SEC)
As for B5, the binding result in data set [5] and in data set [6] was “binds” each time.

B6: His-F3 (His-tagged lamin A/C residues 250–400) (domain or fragment, human, UniProt P02545 250-400, looked up)
chain: AQHEDQVEQYKKELEKTYSAKLDNARQSAERNSNLVGAAHEELQQSRIRIDSLSAQLSQLQKQLAAKEAKLRDLEDSLARERDTSRRLLAEKEREMAEMRARMQQQLDEYQELLDIKLALDMEIHAYRKLLEGEEERLRLSPSPTSQRSRG
notes: lamin A/C, human, residues 250-400; The plasmid also encodes a TEV site between the tag and the lamin residues (pProEx-HTa); also called his-tagged 250–400 fragment; coil 2 fragment; source: E. coli BL21 (DE3), purified (Ni-NTA, HiTrap Q, SEC; no TEV treatment); not shown: His tag, N-terminal, kept
B6: the binding result in data set [7], in data set [9] and in data set [10] was “binds” in each case. Besides, in data set [8], the “fold higher binding affinity than the wild type (from KD values)” value was about 40 fold.
